Key:
[1] = K-562 cytotoxicity assay (MTT); type: cell-based, human; conditions: human, K-562 cells, 100 uM, MTT absorbance
Method: (§1) The K-562 cell line (CRL-243, ATCC) has attained widespread use as a highly sensitive in vitro target for cytotoxicity assays. K-562 blasts are multipotential, hematopoietic malignant cells that spontaneously differentiate into recognizable progenitors of the erythrocytic, granulocytic and monocytic series (Lozzio, B B et al., Proc. Soc. Exp. Biol. Med. 166: 546-550, 1981).
(§2) K562 cells were plated at 5,000 cells/well in 96-well tissue culture clusters (Costar) in DMEM phenol-free growth medium (Life Technologies) supplemented with pyruvate and 10% serum (HyClone). Next day, human recombinant ZCYTO18 (Example 19), BSA control or retinoic acid (known to be cytotoxic to K562 cells) were added. Seventy-two hours later, the vital stain MTT (Sigma, St Louis, Mo.), a widely used indicator of mitochondrial activity and cell growth, was added to the cells at a final concentration of 0.5 mg/ml. MTT is converted to a purple formazan derivative by mitochondrial dehydrogenases. Four hours later, converted MTT was solubilized by adding an equal volume of acidic isopropanol (0.04N HCl in absolute isopropanol) to the wells. Absorbance was measured at 570 nm, with background subtraction at 650 nm. In this experimental setting, absorbance reflects cell viability. Results shown in Table 7 are expressed as % cytotoxicity.

K-562 cells = experiment: K-562 cytotoxicity assay (MTT); type: cell-based, human; conditions: 72 hours, MTT absorbance
Method: as §1, §2

[2] = test system: BaF3/CRF2-4/zcytor11 cells; experiment: Alamar Blue proliferation assay, BaF3/CRF2-4/zcytor11 cells; type: cell-based, murine; conditions: for proliferative response (in words): 0.06-50 ng/ml, media without IL-3
Method: BaF3/CRF2-4/zcytor11 cells were spun down and washed in the complete media, described in Example 21A above, but without mIL-3 (hereinafter referred to as “mIL-3 free media”). The cells were spun and washed 3 times to ensure the removal of the mIL-3. Cells were then counted in a hemacytometer. Cells were plated in a 96-well format at 5000 cells per well in a volume of 100 μl per well using the mIL-3 free media.
Proliferation of the BaF3/CRF2-4/zcytor11 cells was assessed using ZCYTO18-CEE protein diluted with mIL-3 free media to 50, 10, 2, 1, 0.5, 0.25, 0.13, 0.06 ng/ml concentrations. 100 μl of the diluted protein was added to the BaF3/CRF2-4/zcytor11 cells. The total assay volume is 200 μl. The assay plates were incubated at 37° C., 5% CO2 for 3 days at which time Alamar Blue (Accumed, Chicago, Ill.) was added at 20 μl/well. Plates were again incubated at 37° C., 5% CO2 for 24 hours. Alamar Blue gives a fluourometric readout based on number of live cells, and is thus a direct measurement of cell proliferation in comparison to a negative control. […]. Plates were read on the Finax™ plate reader (Molecular Devices Sunnyvale, Calif.) using the SoftMax™ Pro program, at wavelengths 544 (Excitation) and 590 (Emmission). […] The response, as measured, was approximately 15-fold over background at the high end of 50 ng/ml down to a 2-fold induction at the low end of 0.06 ng/ml.

ZCYTO18 = biological target: T1, ZCYTO18 (Homo sapiens, UniProt Q9GZX6); conditions: commonly owned PCT/US00/32703; cited from earlier work
T1 sequence (Q9GZX6 34-179): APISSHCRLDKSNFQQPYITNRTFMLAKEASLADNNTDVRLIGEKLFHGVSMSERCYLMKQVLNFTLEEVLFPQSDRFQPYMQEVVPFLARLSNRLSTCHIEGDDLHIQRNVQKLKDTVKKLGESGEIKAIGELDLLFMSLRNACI

BaF3/CRF2-4 cells = experiment: Alamar Blue proliferation assay, BaF3/CRF2-4 cells; type: cell-based, murine; conditions: mIL-3 free media
Method: BaF3, an interleukin-3 (IL-3) dependent pre-lymphoid cell line derived from murine bone marrow (Palacios and Steinmetz, Cell 41: 727-734, 1985; Mathey-Prevot et al., Mol. Cell. Biol. 6: 4133-4135, 1986), was maintained in complete media (RPMI medium (JRH Bioscience Inc., Lenexa, Kans.) supplemented with 10% heat-inactivated fetal calf serum, 2 ng/ml murine IL-3 (mIL-3) (R & D, Minneapolis, Minn.), 2 mM L-glutaMax-1™ (Gibco BRL), 1 mM Sodium Pyruvate (Gibco BRL), and PSN antibiotics (GIBCO BRL)). Prior to electroporation, CRF2-4/pZP7P was prepared and purified using a Qiagen Maxi Prep kit (Qiagen) as per manufacturer's instructions. […]
BaF3/CRF2-4/zcytor11 cells were spun down and washed in the complete media, described in Example 21A above, but without mIL-3 (hereinafter referred to as “mIL-3 free media”). […] Cells were then counted in a hemacytometer. […]
Proliferation of the BaF3/CRF2-4/zcytor11 cells was assessed using ZCYTO18-CEE protein diluted with mIL-3 free media to 50, 10, 2, 1, 0.5, 0.25, 0.13, 0.06 ng/ml concentrations. […] Alamar Blue gives a fluourometric readout based on number of live cells, and is thus a direct measurement of cell proliferation in comparison to a negative control. […] Plates were read on the Finax™ plate reader (Molecular Devices Sunnyvale, Calif.) using the SoftMax™ Pro program, at wavelengths 544 (Excitation) and 590 (Emmission). […]

BaF3 wild type cells = experiment: Alamar Blue proliferation assay, BaF3 wild type cells; type: cell-based, murine; conditions: mIL-3 free media

For `CC1=C(/C=C/C(C)=C/C=C/C(C)=C/C(=O)O)C(C)(C)CCC1` [Retinoic acid, reference compound], the cytotoxicity at 72 h, 100 µM [1] was 62%.

B1: ZCYTO18: novel four-helical-bundle cytokine polypeptide, SEQ ID NO:3; annotated in the literature as IL-TIF (protein, listed as Homo sapiens)
chain: MGTLATSCLLLLALLVQGGAAAPISSHCRLDKSNFQQPYITNRTFMLAKEASLADNNTDVRLIGEKLFHGVSMSERCYLMKQVLNFTLEEVLFPQSDRFQPYMQEVVPFLARLSNRLSTCHIEGDDLHIQRNVQKLKDTVKKLGESGEIKAIGELDLLFMSLRNACI
With B1 the “% Cytotoxicity” value (K-562 cells; 100 ng/ml) was 16.2%, the “% Cytotoxicity” value (K-562 cells; 300 ng/ml) was 32% and the “proliferative response (in words)” value [2] was “dose-dependent proliferative response”.

B2: zcytor16: naturally-expressed soluble receptor antagonist of ZCYTO18 (SEQ ID NO:32, SEQ ID NO:33) (protein, listed as Homo sapiens)
chain: MMPKHCFLGFLISFFLTGVAGTQSTHESLKPQRVQFQSRNFHNILQWQPGRALTGNSSVYFVQYKIYGQRQWKNKEDCWGTQELSCDLTSETSDIQEPYYGRVRAASAGSYSEWSMTPRFTPWWETKIDPPVMNITQVNGSLLVILHAPNLPYRYQKEKNVSIEDYYELLYRVFIINNSLEKEQKVYEGAHRAVEIEALTPHSSYCVVAEIYQPMLDRRSQRSEERCVEIP
For B2, the “binding of ZCYTO18 and antagonism of its activity” value (ZCYTO18) is listed as “bind ZCYTO18 and antagonize its activity”.

B3: ZCYTO18-CEE: ZCYTO18 polypeptide containing C-terminal GluGlu (EE) tag (SEQ ID NO:14), purified from BHK 570 or Sf9 cells (protein)
chain: APISSHCRLDKSNFQQPYITNRTFMLAKEASLADNNTDVRLIGEKLFHGVSMSERCYLMKQVLNFTLEEVLFPQSDRFQPYMQEVVPFLARLSNRLSTCHIEGDDLHIQRNVQKLKDTVKKLGESGEIKAIGELDLLFMSLRNACIEYMPME
For B3, the “proliferative response over background” value ([2]; 50 ng/ml, mIL-3 free media, 3 days then Alamar Blue) was “approximately 15 fold”, the “proliferative response (in words)” value [2] was “dose-dependent proliferative response” and the “proliferation in response to ZCYTO18-CEE” value (BaF3/CRF2-4 cells) was “did not proliferate”. For the same molecule, the “proliferation in response to ZCYTO18-CEE” value (BaF3 wild type cells) was “did not proliferate”.

Reference: patent US8475791B2, “Anti-IL-TIF antibodies and methods of use” (ZymoGenetics, Inc., priority 1999, dated 2013)
